Results taken from US20250289888A1 (GIGAGEN, published 2025).
Positions count from the first letter of the chain named. Blank lines part the entries; values can stand above or below the binder they belong to.

What was measured:
[1] = target: T1, mouse CTLA-4 (mouse, UniProt P09793 36-162, limits assumed); test: BLI (Octet), captured mAb, soluble mouse CTLA-4
T1 construct: antigen of the anti-mouse CTLA-4 BLI measurements; also called murine CTLA-4
Procedure: The binding specificity and affinity of each full-length antibody towards CTLA-4 were determined using biolayer interferometry (BLI) and/or surface plasmon resonance (SPR). Anti-cyno CTLA-4 and anti-mouse CTLA-4 affinities were tested using ForteBio (BLI). Anti-human CTLA-4 affinities were measured using Carterra (SPR).
For BLI, antibodies were loaded onto an Anti-Human IgG Fc (AHC) biosensor using the Octet Red96 system (ForteBio). Loaded biosensors were dipped into antigen dilutions beginning at 300 nM, with 6 serial dilutions at 1:3. Kinetic analysis was performed using a 1:1 binding model and global fitting.

[2] = target: human CTLA-4 expressed on cells (human, UniProt P16410 36-223); test: cell-based or functional assay
Sequence of human CTLA-4 expressed on cells (P16410 36-223 limits assumed): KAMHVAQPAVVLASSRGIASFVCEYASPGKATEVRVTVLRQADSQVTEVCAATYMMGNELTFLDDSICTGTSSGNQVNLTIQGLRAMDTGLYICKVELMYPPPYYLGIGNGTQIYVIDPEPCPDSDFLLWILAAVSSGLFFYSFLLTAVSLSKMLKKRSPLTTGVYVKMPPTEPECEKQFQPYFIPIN

[3] = target: T2, recombinant human CTLA-4-Fc (human, UniProt P16410 36-162); test: blocking ELISA: plate-bound rhCTLA-4-Fc, mAb titrated, rhCD86-His binding detected
T2 construct: bought Fc chimera; also called rhCTLA-4-Fc; rhCTLA-4-Fc chimera; Fc part of the bought chimera not given
T2 sequence (P16410 36-162): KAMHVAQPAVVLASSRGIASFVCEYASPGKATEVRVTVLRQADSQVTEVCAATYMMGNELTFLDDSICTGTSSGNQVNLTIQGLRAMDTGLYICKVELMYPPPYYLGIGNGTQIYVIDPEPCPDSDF
Procedure: (§1) Plates were coated with rhCTLA-4-Fc and then blocked with 1×PBST with 5% w/v nonfat dry milk. After blocking a dilution series of the indicated antibody was added to the plate.

[4] = target: T2, recombinant human CTLA-4-Fc; test: blocking ELISA: plate-bound rhCTLA-4-Fc, mAb titrated, rhCD80-His binding detected
Procedure: as §1

B2: antibody A5 (antibody, V domains shown)
VH: QVQLVESGGGVVQPGRSLRLSCAASGFTFSSYGMHWVRQAPGKGLEWVAVIWYDGNNKYYADSVKGRFTISRDNSKNTLYLQMYSLRAEDTAVYYCARGGILAAGIFDYWGQGTLVTVSS
VL: EIVLTQSPGTLSLSPGDRATLSCRASQSGSSSYLAWYQQKPGQAPRLLIYGASSRATGIPDRFSGSGSGTDFTLTISRLEPEDFAVYYCQQYGTSPFTSGPGTKVDIK
notes: full-length human IgG1 (CHO); also called aCTLA-4.28; CTLA4.A5
CD86% inhibition [3]: 90.6% | Promega assay antagonist (EC50. ug/mL) [2]: 0.18 µg/mL | CD80% inhibition [4]: 96.3%

B3: antibody A1 (antibody, human IgG1, V domains shown)
VH: QVQLVESGGGVVQPGRSLRLSCAASGFTFSSFGMHWVRQAPGKGLEWVAVIWYDGRNKYYVDSVKGRFTISRDNSNNTLYLQMNSLRAEDTAVYYCARGEFFGEFFDYWGQGTLVTVSS
VL: B2 VL with D17E, R18G, G29F, S32N, S99F
Promega assay antagonist (EC50. ug/mL) [2]: 0.13 µg/mL

B5: antibody A2 (antibody, human IgG1, V domains shown)
VH: QVQLVESGGGVVQPGRSLRLSCAASGFTFSNYGMNWVRQAPGKGLEWVAVIWYDGRNKHYADSVKGRFTISRDNSKNTLYLQMNSLRAEDTAVYYCARGGDWGPYFDYWGQGTLVTVSS
VL: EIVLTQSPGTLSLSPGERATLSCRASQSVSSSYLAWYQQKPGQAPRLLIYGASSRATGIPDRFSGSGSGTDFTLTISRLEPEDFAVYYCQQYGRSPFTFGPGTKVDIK
notes: full-length human IgG1 (CHO); also called aCTLA-4.4; CTLA4.A2
binding result [1]: no binding (tested: antigen dilutions beginning at 300 nM) | CD86% inhibition [3]: 91.5% | Promega assay antagonist (EC50. ug/mL) [2]: 0.12 µg/mL | CD80% inhibition [4]: 95.4%

B8: antibody A6 (antibody, human IgG1, V domains shown)
VH: QVQLVESGGGVVQPGRSLRLSCAASGFTFSSYGMHWVRQAPGKGLEWVAVIWYDGSYKYYADSVKGRFTISRDDSKNTLYLQMSSLRAEDTAVYYCARAPHYAILTGYYEDYWGQGTLVTVSS
VL: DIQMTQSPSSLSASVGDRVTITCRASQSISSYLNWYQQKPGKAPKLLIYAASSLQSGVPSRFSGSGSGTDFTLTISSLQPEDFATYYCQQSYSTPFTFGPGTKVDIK
Promega assay antagonist (EC50. ug/mL) [2]: 0.18 µg/mL

B9: Ipilimumab analog (antibody, human IgG1, V domains shown)
VH: QVQLVESGGGVVQPGRSLRLSCAASGFTFSSYTMHWVRQAPGKGLEWVTFISYDGNNKYYADSVKGRFTISRDNSKNTLYLQMNSLRAEDTAIYYCARTGWLGPFDYWGQGTLVTVSSA
VL: not shown
notes: also called Ipi analog; in-house produced ipilimumab
binding result [1]: no binding (tested: antigen dilutions beginning at 300 nM)

B13: antibody A8 (antibody, human IgG1, V domains shown)
VH: QVQLVESGGGVVQPGRSLRLSCAASGFTFSRYGMHWVRQAPGKGLEWVAVIWYDGRNKYYADSVKGRFTISRDNSKNTLYLQMNSLRAEDTALYSCARAGELGPFDYWGQGTLVTVSS
VL: EIVLTQSPGTLSLSPGERATLSCRASQSVSYLAWYQQKPGQAPRLLIYGASSRATGIPDRFSGSGSGTDFTLTISRLEPEDFAVYYCQQYGSSPWTFGQGTKVEIK
notes: full-length human IgG1 (CHO); also called aCTLA-4.1; CTLA4.A8
binding result [1]: no binding (tested: antigen dilutions beginning at 300 nM) | Promega assay antagonist (EC50. ug/mL) [2]: 0.15 µg/mL

Further lines, with some results ahead:

Promega assay antagonist (EC50. ug/mL) [2]: 0.42 µg/mL
B1: antibody A11 (antibody, human IgG1, V domains shown)
VH: QVQLVESGGGVVQPGRSLRLSCAASGFTFSSYGMHWVRQAPGKGLEWVAVIWYDVGNKYYIDSVKGRFTISRDNSKNTLYLQMNSLRAEDTAVYYCARDYYGSGSPRHFDYWGQGTLVTVSS
VL: DIQLTQSPSFLSASVGDRVTITCRASQGISSYLAWYQQKPGKAPKLLIYAASTLQSGVPSRFSGSGSGTEFTLTISSLQPEDFATYYCQQLNSYPPTFGQGTKVEIK
notes: full-length human IgG1 (CHO); also called aCTLA-4.31; L11H11
binding result [1]: no binding (tested: antigen dilutions beginning at 300 nM)

Promega assay antagonist (EC50. ug/mL) [2]: 0.15 µg/mL
B4: antibody A4 (antibody, V domains shown)
VH: QVQLVESGGGVVQPGRSLRISCAASGFTFSSYGIHWVRQAPGKGLQWVAVIWYDGRNKYYADSVKGRFTISRDNSKNTLYLQMNSLRAEDTAVYYCSRSGSFGAFDIWGQGTMVTVSS
VL: B2 VL
notes: full-length human IgG1 (CHO); also called aCTLA-4.29; L4H4
binding result [1]: no binding (tested: antigen dilutions beginning at 300 nM)

Promega assay antagonist (EC50. ug/mL) [2]: 0.18 µg/mL
B6: antibody A3 (antibody, human IgG1, V domains shown)
VH: B5 VH with A23I, N31S, N35H, I51N, R56S, D101V
VL: not shown
notes: full-length human IgG1 (CHO); also called aCTLA-4.2; L3H3
binding result [1]: no binding (tested: antigen dilutions beginning at 300 nM)

Promega assay antagonist (EC50. ug/mL) [2]: 0.09 µg/mL
B7: antibody A13 (antibody, human IgG1, V domains shown)
VH: B5 VH with N31S, N35H, H59D, F68I, D101L, W102L
VL: not shown

CD86% inhibition [3]: 78.8% | Promega assay antagonist (EC50. ug/mL) [2]: 0.17 µg/mL | CD80% inhibition [4]: 92.1%
B10: antibody A7 (antibody, human IgG1, V domains shown)
VH: QVQLVESGGGVVQPGRSLRLSCAASGFTLSSFGMHWVRQAPGKGLEWVAVIWYDGSNKYYADSVKGRFIISRDNSKTALYLQMNSLRAEDTAVYYCARAHYFGAFDIWGQGTMVTVSS
VL: not shown
notes: full-length human IgG1 (CHO); also called aCTLA-4.3; CTLA4.A7
binding result [1]: no binding (tested: antigen dilutions beginning at 300 nM)

Promega assay antagonist (EC50. ug/mL) [2]: 0.26 µg/mL
B11: antibody A10 (antibody, human IgG1, V domains shown)
VH: B13 VH with A23V, F29L, R31S, R56S, Y59H, Y80S, L93V, S95Y, A99G, E101Q
VL: not shown
notes: full-length human IgG1 (CHO); also called aCTLA-4.22; L10H10
binding result [1]: no binding (tested: antigen dilutions beginning at 300 nM)

Promega assay antagonist (EC50. ug/mL) [2]: 0.19 µg/mL
B12: antibody A9 (antibody, human IgG1, V domains shown)
VH: QVQLVESGGGVVQPGRSLRLSCAASGFTFSSHGMHWVRQAPGKGLEWVAVIWYDGSNKHYADSVKGRFTISRDNSKNTLYLQMNSLRAEDTAVYYCARGDILTGYYGYWGQGTLVTVSS
VL: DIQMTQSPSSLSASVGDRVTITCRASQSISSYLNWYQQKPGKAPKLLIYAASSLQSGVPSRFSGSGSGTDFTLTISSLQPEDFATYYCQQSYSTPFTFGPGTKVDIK
notes: full-length human IgG1 (CHO); also called aCTLA-4.24; L9H9
binding result [1]: no binding (tested: antigen dilutions beginning at 300 nM)

CD86% inhibition [3]: 54.5%
B14: GIGA-564 (antibody, V domains shown)
VH: QVQLVESGGGVVQPGRSLRLSCAASGFTFSSYGMHWVRQAPGTGLEWVAVIWYEGRNKYYADPVKGRFTISRDNSKNTLYLQMNSLRDDDTAVYYCARAGDLGAFDIWGQGTMVTVSSA
VL: not shown
notes: fucosylation differs between lots (77-95 %); also called antibody A14; aCTLA-4.15
